# Experimental data as given in patent publication US20120301476A1 (TORAY INDUSTRIES, published 2012).
# T1: peptide of SEQ ID NO: 70 (partial sequence in the polypeptide of SEQ ID NO: 37) (human)
# T1 peptide: FTSGEKEQVDEW
# T2: peptide of SEQ ID NO: 69 (partial sequence in the polypeptide of SEQ ID NO: 37) (human)
# T2 peptide: QQPQAASPSVPE
# T3: human CAPRIN-1 protein on the cell surfaces of human cancer cell lines and in human cancer tissues (human, UniProt Q14444 2-709)
# T3 construct: whole, on cells; Endogenous protein of human cancer cell lines (flow cytometry, ADCC, CDC) and of human cancer tissue sections (immunohistochemistry); also called CAPRIN-1 protein expressed on the cell membrane surfaces
# T3 sequence (looked up): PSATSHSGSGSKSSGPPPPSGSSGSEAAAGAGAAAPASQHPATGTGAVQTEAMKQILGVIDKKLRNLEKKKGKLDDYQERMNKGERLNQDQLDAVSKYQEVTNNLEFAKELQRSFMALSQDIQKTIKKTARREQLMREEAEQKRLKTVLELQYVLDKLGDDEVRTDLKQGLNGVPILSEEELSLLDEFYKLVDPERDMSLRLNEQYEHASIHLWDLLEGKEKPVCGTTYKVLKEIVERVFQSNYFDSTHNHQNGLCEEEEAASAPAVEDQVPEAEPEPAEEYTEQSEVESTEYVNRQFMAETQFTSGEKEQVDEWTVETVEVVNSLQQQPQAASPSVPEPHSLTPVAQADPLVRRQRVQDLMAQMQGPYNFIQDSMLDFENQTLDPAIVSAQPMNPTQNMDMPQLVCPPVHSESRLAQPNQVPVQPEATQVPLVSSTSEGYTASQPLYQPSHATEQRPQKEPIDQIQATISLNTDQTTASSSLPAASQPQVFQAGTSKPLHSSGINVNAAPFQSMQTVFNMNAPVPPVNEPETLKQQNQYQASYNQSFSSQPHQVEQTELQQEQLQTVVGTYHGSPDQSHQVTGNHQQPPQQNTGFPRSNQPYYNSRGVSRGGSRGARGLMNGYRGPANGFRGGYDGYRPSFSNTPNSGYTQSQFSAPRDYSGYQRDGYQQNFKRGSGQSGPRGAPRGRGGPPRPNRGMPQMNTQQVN
# B1: anti-CAPRIN-1 mouse monoclonal antibody #6 (antibody, V domains shown)
# VH: DAELVKPGASVKISCKASGYTFTDHSIHWVQQKPEQGLEWIGYISPGNGNIKYNEKFKGKATLTADKSSSTAYMQLNSLTSEDSAVYFCKRSLGRGGPYYFDYWGQGTTVTVSS
# VL: DIVLTQAAPSLPVTPGESVSISCRSSKSLLHSNGNTYLYWFLQRPGQSPQLLIYRMSNLASGVPDRFSGSGSGTAFTLRISRVEAEDVGVYYCMQHREYPVTFGSGPN
# notes: Mouse hybridoma antibody; detected with anti-mouse IgG
# B2: anti-CAPRIN-1 mouse monoclonal antibody #5 (antibody, V domains shown)
# VH: GAELVRSGASVKMSCKASGYSFTDYNMYWVKQTPGQGLEWIGYIYPGNGGTNYNQKFKGKATLTADTSSSTAYMQISSLTSEDSAVYFCARDYDDGGYAMDYWGQGTTVTVSS
# VL: DIQMTQSPASLSASVGETVTITCRASGNIHNYLTWYQQKQGKSPQLLVYNAKTLADGVPSRFSGSGSGTQYSLKINRLQPEDFGSYYCQHFWNIPWTFGGGTKLNSR
# notes: as for B1
# B3: anti-CAPRIN-1 mouse monoclonal antibody #4 (antibody, V domains shown)
# VH: B2 VH
# VL: B2 VL
# B4: anti-CAPRIN-1 mouse monoclonal antibody #3 (antibody, V domains shown)
# VH: GGGLVKPGGSLKLSCAASGFTFSSYGMSWVRQTPEKRLEWVATISSGGSYTYYPDSVKGRFTISRDNAKNTLYLQMSSLRSEDTAMYYCASLASYYFDYWGQGTTLTVSS
# VL: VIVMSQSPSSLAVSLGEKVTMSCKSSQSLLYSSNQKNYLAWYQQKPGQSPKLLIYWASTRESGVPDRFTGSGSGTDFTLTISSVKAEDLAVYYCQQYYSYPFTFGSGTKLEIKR
# Target: T1, peptide of SEQ ID NO: 70 (partial …)
# Assay: ELISA on immobilised synthetic peptides
# Procedure: (§1) Each peptide was dissolved in 0.1M sodium carbonate buffer (pH 9.6) at a concentration of 30 μg/ml, added to a 96-well plate (Nunc, Product No. 436006) at 100 μl per well, and then left to stand at 4° C. overnight. The solution was discarded, 10 mM ethanolamine/0.1M sodium carbonate buffer (PH 9.6) was added at 200 μl per well, and then the plate was left to stand at room temperature for 1 hour. The solution was discarded, the plate was washed twice with PBS (PBST) containing 0.5% Tween20, so that the plate with each peptide immobilized thereto was prepared.
# (§2) A cell culture supernatant containing the human-chicken chimeric monoclonal antibody (#1) and the mouse monoclonal antibodies (#2, #3, #4, #5, and #6) obtained in Example 4 (2) was added to the plate at 50 μl per well. After 1 hour of shaking at room temperature, the solution was removed, and then the plate was washed three times with PBST. Next, an HRP-labeled anti-human IgG (Invitrogen) antibody diluted 3000- to 4000-fold with PBST (a secondary antibody solution) was added to each well of the human-chicken chimeric monoclonal antibody and an HRP-labeled anti-mouse IgG (Invitrogen) antibody diluted 3000- to 4000-fold with PBST (a secondary antibody solution) was added to each well of the mouse monoclonal antibody, at 50 μl per well, and then the solution was removed, followed by six times of washing with PBST.
# (§3) A TMB substrate solution (Thermo) was added at 100 μl per well, and the plate was left to stand for 15 to 30 minutes for coloring reaction. After color development, 1N sulfuric acid was added at 100 μl per well to stop the reaction and then absorbances at 450 nm and 595 nm were measured using an absorption spectrometer. As a result, the polypeptide of SEQ ID NO: 37 was identified as a CAPRIN-1 partial sequence that is recognized by all of the anti-CAPRIN-1 monoclonal antibodies #1 to #6. Furthermore, the peptide of SEQ ID NO: 69 was identified as a partial sequence in the above polypeptide of SEQ ID NO: 37, which is recognized by the monoclonal antibodies #1, #4, and #5. […]
row,binding result,Binder
1,binds,B1

# Target: T2, peptide of SEQ ID NO: 69 (partial …)
# Assay: ELISA on immobilised synthetic peptides
# Procedure: as §1, §2, §3
row,binding result,Binder
1,binds,B2

# Target: T3, human CAPRIN-1 protein on the cell …
# Assay: flow cytometry on the listed human cancer cell lines, culture supernatant, against negative control
# Procedure: 10⁶ cells of each cell line were centrifuged in a 1.5 ml microcentrifuge tube. Each cell culture supernatant (100 μl) of CHO-K1 cells containing #1 obtained in (2) above and hybridomas producing #2, #3, #4, #5, and #6 obtained in Example 3 was added and then left to stand on ice for 1 hour. After washing with PBS, a FITC-labeled goat anti-human IgG (H+L) antibody (SouthernBiotech) and a FITC-labeled anti-mouse IgG (H+L) antibody (Invitrogen) diluted 500-fold with PBS containing 0.1% FBS were added and then left to stand on ice for 1 hour. After washing with PBS, fluorescence intensity was measured using a FACS Calibur (Becton, Dickinson). Meanwhile, procedures similar to the above were performed using a culture supernatant of CHO-K1 cells into which no antibody gene had been introduced and medium for culturing hybridomas, so that a negative control sample was prepared. […] Specifically, when the antibody #1 was used, fluorescence intensity was enhanced to 4700% in the case of SK-BR-3 and 5500% in the case of MDA-MB-231V. Also, when the antibodies #2, #3, #4, #5, and #6 were used, fluorescence intensity was enhanced. […] The percentage of enhancement in the above fluorescence intensity was expressed as percentage of increase in mean fluorescence intensity (MFI level) in each type of cell and calculated by the following formula.
row,percentage of increase in mean fluorescence intensity [%],Binder
1,≥ 20,B1
2,≥ 20,B3
3,≥ 20,B2
4,≥ 20,B4

# Target: T3, human CAPRIN-1 protein on the cell …
# Assay: cell-based or functional assay
Binder,cytotoxic activity (ADCC) against A549 [%],cytotoxic activity (ADCC) against ACHN [%],cytotoxic activity (ADCC) against AML5 [%],cytotoxic activity (ADCC) against Caki-1 [%],cytotoxic activity (ADCC) against KYSE180 [%],cytotoxic activity (ADCC) against MDA-MB-157 [%],cytotoxic activity (ADCC) against MNK28 [%],cytotoxic activity (ADCC) against MNK45 [%],cytotoxic activity (ADCC) against QG56 [%],cytotoxic activity (ADCC) against Ramos [%]
B1,≥ 24,≥ 14,≥ 10,≥ 23,≥ 22,19,≥ 15,≥ 10,≥ 20,≥ 10
B3,≥ 24,≥ 14,≥ 10,≥ 23,≥ 22,31,≥ 15,≥ 10,≥ 20,≥ 10
B2,≥ 24,≥ 14,≥ 10,≥ 23,≥ 22,30.9,≥ 15,≥ 10,≥ 20,≥ 10
B4,≥ 24,≥ 14,≥ 10,≥ 23,≥ 22,32.4,≥ 15,≥ 10,≥ 20,≥ 10

# Same assay, conditions: not given
Binder,cytotoxic activity (ADCC) against SW480 [%],cytotoxic activity (ADCC) against SW756 [%],cytotoxic activity (ADCC) against T24 [%],cytotoxic activity (ADCC) against T98G [%],cytotoxic activity (ADCC) against U373 [%]
B1,≥ 17,≥ 16,≥ 18,≥ 12,≥ 16
B3,≥ 17,≥ 16,≥ 18,≥ 12,≥ 16
B2,≥ 17,≥ 16,≥ 18,≥ 12,≥ 16
B4,≥ 17,≥ 16,≥ 18,≥ 12,≥ 16
